Reference: the nanobody polyreactivity screen of Harvey et al. (2022)

Assay: yeast display, Sf9 membrane polyspecificity reagent, FACS + sequencing; frameworks hold sequencing errors
Method in brief: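 Genes from sorted yeast were amplified by colony PCR, read by MiSeq 2 × 250 sequencing and filtered on CDR length. These cells carried a synthetic nanobody library in Saccharomyces cerevisiae BJ5465 and were sorted by FACS into low and high (top ~1%) gates on anti-HA and streptavidin fluorescence. Polyreactivity is labelled according to the gate of origin.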

QVQLVESGGGLVQAGGSLRLSCAASGLIFVRYAMGWYRQAPGKERELVATITWSGGTTYADSVKGRFTISRDNGKNTVYLQMNSLKPEDTEVYDCAVEWPAWTDSDYPVGGHAFGYWGQVTQVTVSS
polyreactivity (PSR sort gate): low polyreactivity

QVQLVESGGGLVQAGGSLRLSCAASGIIFRYYAMGLYRQAPGKERELVAAITTGGSTYYADSVKGRFTISRDNAKNTVYLQMNSLKPEDTAVYYCAAQILVRHIPYYYWGQGTQVTVSS
polyreactivity (PSR sort gate): high polyreactivity

QVQLVESGGGLVQAGGSLRLSCAASGSSFRRYAMGWYRQAPGKERELVATIRSGGSTTYADSVKGRFTISRDNAKNTVYLQMNSLKPEDTAVYFFAAGTKPSYYYWGQGTQVTVSS
polyreactivity (PSR sort gate): low polyreactivity

QVQLVESGGGLVQAGGSLRLSCAASGRIFSINALGWYRQAPGKEREFVATISDRGSTTSYADSVKGRFTISRDNAKNTVYLQMNSLKPEDTAVYYCAARSYYRYDYWGQGTQVTVSS
polyreactivity (PSR sort gate): high polyreactivity

QVQLVESGGGLVQAGGSLRLSCAASGSTFPYYTMGWYRQAPGKERELVAAITWRGGRTYYADSVKGRFTISRDNAKNTVYLQMNSLKPEDTAVYYCAAKQKHTQQTGWKYEYWGQGTQVTVSS
polyreactivity (PSR sort gate): high polyreactivity

QVQLLESGVGLVQAGGSLRLSCAASGFTFGYYAMGWYRQAPGKETELVAAISSSDGSTYYADSVKGRFTISRDNAKNTVYLQMNSLKPEDTAVYYCAAEYYSAVYIDEYWYDYWGQGTQVTVSS
polyreactivity (PSR sort gate): high polyreactivity

QVQLVESGGGLVQAGGSLRLSCAASGYTFENYVKGWYSQAPGKERELVAAISSRGGSTYYADSVKGRFTISRDNAKNTVYLQMNSLKPEDTAVYYCAARARQTGPYRSRYNYWGQGTQVTVSS
polyreactivity (PSR sort gate): high polyreactivity

QVQLVESGGGLVQAGGSLRLSCAASGNIFSYYAMGWYRQAPGKETELVAAIRSSGVGTRYADSVKGRFTISRDNAKNTVYVQMNSLKPEDTAVYYCAATGYTGYSRYYYWGQGTQVTVSS
polyreactivity (PSR sort gate): high polyreactivity

QVQLVESGGGLVQAGGSLRLSCAASGSTFIWNAMGWYRQAPGKERELVATITGSGDRTTYADSVKGRFTISRDNAKNTVYLQMNSLKPEDTAVYYCAADAYRWWVRYDYWGQGTQVTVSS
polyreactivity (PSR sort gate): low polyreactivity

QVQLVESGGGIVHAGGSLRLSCAASGIIFLFYAMGWYRQARVKERELVASITWSGGSTYYADSVKGRFTISRDNAKNNVFLQMLSLKPEDTSVYYCAASVNIISYLVHSEFLGGELDYWGQGTQVTVSS
polyreactivity (PSR sort gate): low polyreactivity

QVQLVESGGGLVQAGGSLRLSCAASGSTLFSYAMGWYRQAPRKEREFVAAISRRGGSTYYADSVKGRFTISRDNAKNTVYLQMNSLKPEVTAVYYCNTVRVHGFPIDRIYVYWGQGTQVTVSS
polyreactivity (PSR sort gate): high polyreactivity

QVQLVESGGGLVQAGGSLRLSCAASGRTFYSYAMGWYRQAPGKERELVAAISAGGSTYYADSVKGRFTISRDNAKNTVYLQMNSLKPEDTAVYYCAATYSYYYARYHYWGQGTQVTVSS
polyreactivity (PSR sort gate): high polyreactivity

QVQLVESGGGLVQAGGSLRLSCAASVRISESNDMGWYRQAPGKERELVAAISSSGGSTYYADSVKGRFTISRENAKNTVYLQMNSLKPEDTAVYYCNAVYYRTVLKIGVYEYDFWGQGTQVTVSW
polyreactivity (PSR sort gate): low polyreactivity

QVQLVESGGGLVQAGGSLRLSCAASGSTYYPYAMGWSRQAPGKEWQFVAAITWSGGSTYADSVKGRFTISRDNAKNTVNLQMNSLKPEDTAGYYCAAQPFVIDGGYRGDYWGQGTQETVSS
polyreactivity (PSR sort gate): low polyreactivity

QVQHVESVGGLVQAGGSLRLSCAASGRTLKKNAMGWYRQAPGKERELVAAISTGGRTYYADSVKGRFTISRDNAKNTVYLQMNSLKPEDTAVYYCNFQFLSWSTIWGNDYWGQGTQVTVSS
polyreactivity (PSR sort gate): high polyreactivity

QVQLVESVGGLVQAGGSLRLSCAASGFTFVDNAMGWYRQAPGKERELVAAISWTGVGSTYYADSVKGRFTISRDNAKNTVYLQMNSLKPEETAVYYCAADGLSRGVPDEFDYWGQGTQVTVSS
polyreactivity (PSR sort gate): low polyreactivity

QVQLVESGGGLVQAGGSLRLSCAASVRTLPSYAMGWYRQAPGKERELVAAISQSGGSTYYADSVKGRFTISRDNAKNTVYLQMNSLKPEDTAVYYCNAGYYYKYSPRRFDYWGQGTQVTVSS
polyreactivity (PSR sort gate): high polyreactivity
